# Measured values published in paper PMC6042084.
# T1: LPE1 (mature, without transit peptide) (Arabidopsis thaliana, UniProt Q9SNB7 69-665)
# T1 sequence: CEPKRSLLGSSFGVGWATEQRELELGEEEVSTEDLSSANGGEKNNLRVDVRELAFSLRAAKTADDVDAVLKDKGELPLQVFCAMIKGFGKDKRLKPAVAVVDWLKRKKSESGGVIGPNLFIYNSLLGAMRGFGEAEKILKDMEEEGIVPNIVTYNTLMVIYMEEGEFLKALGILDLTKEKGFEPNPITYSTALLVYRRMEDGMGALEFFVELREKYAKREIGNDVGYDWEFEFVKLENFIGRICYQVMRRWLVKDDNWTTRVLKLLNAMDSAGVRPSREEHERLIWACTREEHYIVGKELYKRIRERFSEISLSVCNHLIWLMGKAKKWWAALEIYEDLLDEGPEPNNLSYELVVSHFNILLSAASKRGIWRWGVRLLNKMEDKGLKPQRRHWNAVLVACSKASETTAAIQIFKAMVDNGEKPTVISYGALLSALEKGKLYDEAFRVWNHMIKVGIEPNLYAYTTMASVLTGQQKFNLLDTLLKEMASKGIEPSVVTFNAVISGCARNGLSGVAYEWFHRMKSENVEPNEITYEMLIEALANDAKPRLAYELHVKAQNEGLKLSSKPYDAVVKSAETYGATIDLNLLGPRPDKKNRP
# B1: psbA 5' UTR probe (full length, first 82 nt) (ssRNA)
# RNA: UUCAUAACAAGCUCUCAAUUAUCUACUUAGAGAAUUUGUGCGCUUGGAGUCCCUGAUUAUUAAAUAAACCAAGGAUUUUACC
# Molecular target: T1, LPE1 (mature, without transit peptide)
# Assay: EMSA
binder,measurement,value
B1,binding result,binds
